In the DeepSol protein solubility set:

Assay: soluble on expression in E. coli; label from the status in PepcDB or PDB records

Row | Sequence | soluble on expression in E. coli
1 | MNILLTSATGYLGRAIAAAIQSKGHRVTALARSAATAQRLEAAGIQPCRGDLTDAVALQQAAAQADAVIHTAATNDAAMGLVDRQAVKTLLAAIAGTQKPFLYTSGLWVMGNTGATVADETFPLNPPALVAWRPAVEALVLSAADQGVRSIVIRPALVYGRGGGLLPMLMQAGQSQGAVPVIGAGDNAWSFIHIDDLAALYVAAIEQAPARTLLIGASGESVSMQQVALTIAKTLGLGDRLQHLTLEEARAIWGDLADALTLDQRVSGDRARQLLHWQPVAPGVFQELTQGSYATKAIAALEHHHHHH | not soluble
2 | LDEYQVSQDRLVESEERYRQLVESAPDAVLIHCDGRYVFANPAALRLYGADTADQLLGREITDFVHPNSRQVVAERIKLLYQERSPAPLCEQQIVRLDGTVVDVEVVGIPYSHQGRPAVQAVLREIT | not soluble
3 | QPTAQQQLTKPAKITCANCKKPLQKGQTAYQRKGSAHLFCSTTCLSSFS | soluble
4 | MLIDMILAFSVAPTETPNNKAEMADVVAEAIRVVRESGLPNETNAMFTLIEGEWDEVMAVVKKATDAVLAVSPRASLVIKADIRPGYTGQLQQKVASVERVLAGDSES | not soluble
5 | MVAISDLRGLSLPEALGGIVEAIENVEVGEQVQFVLDSDADVEAITTHLSEYAECSAEKGDRFILLKVTKRAEFKADEEEEFRIDENTNVGRLIERYPEATEILASYGFTPLRNPVLRKTLAKTITLGRAKMLKKLSDEEFEEMLRKLRELRG | not soluble
6 | MVKSIVILIETVTMKIPAVYSDGSFKTFNDSETTAQKLVDSGVVNTFAFGPTLVENGKVAVSENEEVGQDMADNPRTAIVVNEESDRSVHYIVIVSDGRTSESSGLTLYEMAELMKSYGVMTGYNLDVGDSSTMYSNGQVINKPTRKRKQNLRKGGERYRLHRLLKNLLASTFSPPILVLEHHHHHH | soluble
7 | MGSDKIHHHHHHVNSDNNPNQISDIKPILKVYIENSGSMDGYMCDGSQLKDAIFDYVSDLSTCVDTTQLYYINNRVIPYHADLEQYIKTMNPITFQKAGGNRSNSDLSKMLSTVLDAMTDSTVSIFVSDCILDLPVSDAQRFLSTCQISIKNTINKGRKNIPLLGVEILKMKSDFNGKYFYQNGGSEVLTNVKRPYYIWIFGNSNVLAKLNTEVLFKGLEKYGYDNIISYCPKTSIPYDITNRALISKTINPIKGDYNATIRADFCTTLQSEDVLLNLDNYSFNNQNLIIENIKPIIATEREYSHFINITIPKGVNIAEDYLILKAPNMPSWVLESNDESGENVKGNLDKTTGIKYLIGGVSDAYKKDNVLTTLKFTVKRK | not soluble
8 | AHHHHHHGSKPKVFITRAIPENGINMLEEEFEVEVWEEEREIPREKLLEKVKDVDALVTMLSERIDQEVFENAPRLRIVANYAVGYDNIDVEEATRRGIYVTNTPDVLTNATADHAFALLLATARHVVKGDKFVRSGEWKRKGIAWHPKWFLGYELYGKTIGIVGFGRIGQAIARRAKGFNMRILYYSRTRKSQAEKELGAEYRPLEEVLKESDFVILAVPLTKETMYMINEERLKLMKPTAILVNIARGKVVDTKALIKALKEGWIAGAGLDVFEEEPYYNEELFSLDNVVLTPHIGSATFEAREAMAELVARNLIAFKRGEIPPTLVNKEVIKIRKPGFNEQ | not soluble
9 | MGSDKIHHHHHHMAPDTSMSSRDALPPLACLRAFEAAARHASFTQAGSELHLTQSAVSRQIKRLEDDLGRPLFERHYEGLRLTPAGERYFGVVQRLLRDLRDETARLRRRGDDRQLTLASSPTIASIWLARQLPDFQRAHPHIEIRILTVEDPHRLDLAEFDLGIYYHVPHEVDPPGLDAEAIFSHEEVAAVCSPAYLARHGDIRDADDLLARHTLMVVEDHYHDWLTWEGWYQAQNLAWRTPEHSLRANSFQLLMNAILAGQGVTLGWTRLLAADLAQHNLVQALPHTLPSRGRLSLLTPQHRHLTEPMRAFRAWVLGPA | not soluble
10 | MGSSHHHHHHSSGLVPRGSMEFVKDLKTPEDYINNELKYGAHNYDPIPVVLKRAKGVFVYDVNDKRYYDFLSAYSSVNQGHCHPNILNAMINQAKNLTICSRAFFSVPLGICERYLTNLLGYDKVLMMNTGAEANETAYKLCRKWGYEVKKIPENMAKIVVCKNNFSGRTLGCISASTTKKCTSNFGPFAPQFSKVPYDDLEALEEELKDPNVCAFIVEPIQGEAGVIVPSDNYLQGVYDICKKYNVLFVADEVQTGLGRTGKLLCVHHYNVKPDVILLGKALSGGHYPISAVLANDDIMLVIKPGEHGSTYGGNPLAASICVEALNVLINEKLCENAEKLGGPFLENLKRELKDSKIVRDVRGKGLLCAIEFKNELVNVLDICLKLKENGLITRDVHDKTIRLTPPLCITKEQLDECTEIIVKTVKFFDERF | soluble
11 | MTSVDCTAYGPELRALAARLPRTPRADLYAFLDAAHTAAASLPGALATALDTFNAEGSEDGHLLLRGLPVEADADLPTTPSSTPAPEDRSLLTMEAMLGLVGRRLGLHTGYRELRSGTVYHDVYPSPGAHHLSSETSETLLEFHTEMAYHRLQPNYVMLACSRADHERTAATLVASVRKALPLLDERTRARLLDRRMPCCVDVAFRGGVDDPGAIAQVKPLYGDADDPFLGYDRELLAPEDPADKEAVAALSKALDEVTEAVYLEPGDLLIVDNFRTTHARTPFSPRWDGKDRWLHRVYIRTDRNGQLSGGERAGDVVAFTPRG | soluble
12 | MPGIDKLPIEETLEDSPQTRSLLGVFEEDATAISNYMNQLYQAMHRIYDAQNELSAATHLTSKLLKEYEKQRFPLGGDDEVMSSTLQQFSKVIDELSSCHAVLSTQLADAMMFPITQFKERDLKEILTLKEVFQIASNDHDAAINRYSRLSKKRENDKVKYEVTEDVYTSRKKQHQTMMHYFCALNTLQYKKKIALLEPLLGYMQAQISFFKMGSENLNEQLEEFLANIGTSVQNVRREMDSDIETMQQTIEDLEVASDPLYVPDPDPTKFPVNRNLTRKAGYLNARNKTGLVSSTWDRQFYFTQGGNLMSQARGDVAGGLAMDIDNCSVMAVDCEDRRYCFQITSFDGKKSSILQAESKKDHEEWICTINNISKQIYLSENPEETAARVNQSALEAVTPSPSFQQRHESLRPAAGQSRPPTARTSSSGSLGSESTNLAALSLDSLVAPDTPIQFDIISPVCEDQPGQAKAFGQGGRRTNPFGESGGSTKSETEDSILHQLFIVRFLGSMEVKSDDHPDVVYETMRQILAARAIHNIFRMTESHLLVTCDCLKLIDPQTQVTRLTFPLPCVVLYATHQENKRLFGFVLRTSSGRSESNLSSVCYIFESNNEGEKICDSVGLAKQIALHAELDRRASEKQ | not soluble
13 | MRLRAILASLALALTSLGAQAETIRVAIGTQDTTINCAAGGLLIRELGLLEKYLPRDGRYKDADYRVEWKNFTSGAPLTNEMVAGKLDFGAMADFPGTFNGVAFAAAGKRSLFISVLSGSTRGSGNGIVVPSGSPVQSLAELKGQTISVPFASTAHGMLLRAVAAQGWDPQRDVTIIAQPPEIAGSALQANKIAAHADFVPFAELFPNRGFARKIYDGSQANAPTFHGALVDAAYAERYPEVVVAYLRASIEANRLLAAEPEKYSELIEKVTGIEAEVNYLFHGPLGLQTRDQAWKPEYRQALATSIDTLKLLKKADRGLDVERFVDDRYIREAYRQAGLDYQAALADYAPSPLRASDARSGRPIEEFERVAQIWVKGEARVRHYASPESALADLAELKAQGKAIRAIYAQDRDSGIKLLANQAWFVRDGEGRLNAFLLREQAQDYARRHGGEVRDFAAASQQALALR | not soluble
14 | MGSDKIHHHHHHVDWNWNGDIRFRYDSSKTELASSPDKPADDRYRLRARFGVSPTINDELSAGLRLATGDGKNPTSTNQTLGKDFADKAIWLDEAYINYHPKALEGKVNVLLGKRDIAKTFNVVKDLVWDSDVTIEGATLQYGKDVSGKQKSGPSLIAGYYTLENYATASDPCIFAVQGAYMGTVSGADFNLGASYFDYVHMKNVAWWNSPNGPANDGKDFRILEVFGTLGGKLGGSLPATLYAQYAHNTALNSDNNAVLAGLKLGSDKKPGGWTLDGGYFYIEKYAVTPLTDGDRPMSSKYSTDIKGLKIGATYQLVQNMTLGATYFHVNPVDSSLTGSTSDHKNLVQADVAVNF | not soluble
15 | LSLLGVGAASLYVSDSPQPKMAQSQHDTTIDLSSQKDFFEYSLSGLGEHSLEEIQENIEESISQQNSLGIDVELFQTYLAYKRALSKLEPLEDTTLSLSQLQRLNEAILNLQLEYFNDQQISQLFDEENRLRQLAIEKLVIKTYEQDSDSQQLLLNQALSEQPEYIQKSERNNALTRQLDQTELLSSQDKYLARVELVGEEGAQRLQKLDEQRATFEIELTNYLEKRADILNDEFLDSEQKQLEIANLRKQSFETTQWRRIEALERIHDS | not soluble
16 | MSNRFKFFAAIREYNPEGEVFLRIIGTGSNNNLTYRIMESRLNEVGISLGSFLSAVVPMGEPIRDFVPEERNFKVIIDGIVAMVENIEGNLEKNEEGVLVFSTEDFGLVRALDQKLSPGQYQITVRATKFSERKIFKNMNYCAEAQKIAPLVTATESESIFKRVASFFQKSPEENSLESTSKQANEEKDSSVQDLSMAELIEILPNLDQKSINQPTPAPRSMVGSVGITRTMNALVCDVIHQEKECIHFLWICEIQQISMFASKSHYLSPGKFFEGLFEKKETNWECIRFVGEKKELLKGITDGDKFKVTLTNEQGFPVFTVENLYAKLIAFEGKFVFHNKTFGNAIIGCYRPPGDYKITIKLLPIPFTTPTGKFICFEAIHFESADVLSSSNTNTTENKKKVTEKVKERGIRRPQDPKSKGIQRAVVIRVIEKGNSTDYIVWNLDSKMECIFRSAKHELERGHFFSGKFVKKSDGSLMCTNYVKQIKGFVEGGLDEHENIYFTVPIQNFQAARGNRKYNCAFSEYFGEVLEGKAENTKLSSNCNGKTVNIEWKKIGASGSDEYVWIVSKIF | not soluble
17 | MSLDQEQNVSLLVAGDHELLRDAISEILRREGGFSVEVTGSREGVLKQIEERGGFDVILLDLQMPGMSGLDSLREVATSNANGAVAILAGELTRDVVMSAFKAGARGYIPKTLPLRALPIALRLIASGESYVPAWLTNGGGTTQADGPSFDLLPEELQILEEVSDGRTNKQIAFTLNVTEGAIKMKMRAICMKLGAKNRTHAVVIARQHMMLREGHHHHHH | soluble
18 | MGSDKIHHHHHHMERCSVLRIKRLPESLVRKIAAGEVIHNPSFVLKELVENSLDAQADRIVVEIENGGKNMVRVSDNGIGMTREEALLAIEPYTTSKIESEEDLHRIRTYGFRGEALASIVQVSRAKIVTKTEKDALATQLMIAGGKVEEISETHRDTGTTVEVRDLFFNLPVRRKSLKSSAIELRMCREMFERFVLVRNDVDFVFTSDGKIVHSFPRTQNIFERALLILEDLRKGYITFEEELSGLRIKGIVSSREVTRSSRTGEYFYVNGRFVVSEELHEVLMKVYDLPKRSYPVAVLFIEVNPEELDVNIHPSKIVVKFLNEEKVKKSLEETLKRNLARKWYRSVAYEEISSRALSVAEAPSHRWFLVKGKYAVVEVEDGLLFVDLHALHERTIYEEILSKKSWGKRRVKRNITVVLSREEKQKLEEYGFSFQGEEGALKVIEIPEFLTEDVVEEFFRDFPVDEKLKERIALAACKLATKSGEFDEEIASKLLDVFFKKRFERCPHGRPISFKISYEDMDRFFER | not soluble
19 | MQNIHKIKQDMCDIGRRIYNRQFAAANDGNITVRVSENEVLCTPTMHCKGYLTPDDISMIDMTGKQIAGRKKRSSEALLHLEIYKQRADIKSVVHCHPPHATAFAIAREPIPQCILPEVEVFLGDVPITKYETPGGQAFADTIIPFVEKTNVMILANHGTVSYGESVERAYWWTEILDSYCRMLLLAKQLGNVSYLDETKSRELLELKDKWGFKDPRNTSEYEDCDICANDIFRDSWKDSGVERRAFAPPPPIKTSGSASSAPAGVDEEQLVKLITNEVMRQMKASS | not soluble
20 | MHHHHHHSSGVDLGTENLYFQSMINSFYAFEVKDAKGRTVSLEKYKGKVSLVVNVASDCQLTDRNYLGLKELHKEFGPSHFSVLAFPCNQFGESEPRPSKEVESFARKNYGVTFPIFHKIKILGSEGEPAFRFLVDSSKKEPRWNFWKYLVNPEGQVVKFWRPEEPIEVIRPDIAALVRQVIIKKKEDL | soluble
